Series [1] concerns the target T1, KIF5B-Δhinge (Δ505-610)-mScarlet-StrepII (human, UniProt P33176 1-963, Δ505-610).
T1 construct: KIF5B, human, full length with aa 505-610 deleted (aa 1-504 joined to aa 611-963); also called delta-hinge mutant; delta-hinge KHC mutant; source: Sf9 (baculovirus), purified (Streptactin XT, SEC; the fractions that eluted like the wild type were used); not shown: mScarlet, C-terminal, kept
T1 sequence (looked up): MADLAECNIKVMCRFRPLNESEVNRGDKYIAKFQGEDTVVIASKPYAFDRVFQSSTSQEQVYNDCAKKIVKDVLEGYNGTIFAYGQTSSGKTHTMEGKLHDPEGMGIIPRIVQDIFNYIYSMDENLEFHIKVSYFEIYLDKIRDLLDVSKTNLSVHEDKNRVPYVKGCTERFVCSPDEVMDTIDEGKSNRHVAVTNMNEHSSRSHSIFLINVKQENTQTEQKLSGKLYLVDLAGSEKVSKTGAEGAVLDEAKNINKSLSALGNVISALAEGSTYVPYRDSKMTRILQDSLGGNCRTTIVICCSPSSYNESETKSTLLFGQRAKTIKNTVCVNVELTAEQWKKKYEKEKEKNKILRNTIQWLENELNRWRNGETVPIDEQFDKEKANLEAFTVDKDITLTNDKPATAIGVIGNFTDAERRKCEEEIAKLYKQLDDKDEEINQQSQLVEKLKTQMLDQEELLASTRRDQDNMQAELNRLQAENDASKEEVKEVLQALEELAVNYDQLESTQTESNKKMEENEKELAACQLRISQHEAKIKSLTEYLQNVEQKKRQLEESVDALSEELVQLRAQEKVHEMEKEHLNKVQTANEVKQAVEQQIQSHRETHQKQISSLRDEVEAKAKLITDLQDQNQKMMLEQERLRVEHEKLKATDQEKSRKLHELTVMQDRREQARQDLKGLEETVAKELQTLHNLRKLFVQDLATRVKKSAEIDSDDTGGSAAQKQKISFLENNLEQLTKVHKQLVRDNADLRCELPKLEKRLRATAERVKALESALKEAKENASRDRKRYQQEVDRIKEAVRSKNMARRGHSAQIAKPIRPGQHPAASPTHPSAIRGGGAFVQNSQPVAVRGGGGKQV
As to the kind of experiment: TIRF microscopy on microtubules; 40 nM KIF5B (wild type, mutants or K420B) on MTs with or without 200 nM recombinant KLC1, KLC1-CC or KLC1-TPR added in trans; ATP; relative fluorescence intensity on MTs. The conditions noted are these: both partners purified.

Series [2] concerns the molecule itself. Briefly: SEC-MALS; purified full-length KIF5 alone; BioSep SEC-s4000 column, GF150 buffer (25 mM HEPES-KOH, 150 mM KCl, 2 mM MgCl2).

B1: 6xHis-2xStrepII-sfGFP-KLC1-CC (aa 1-200) (domain or fragment, human, UniProt Q07866 1-200, looked up)
chain: MYDNMSTMVYIKEDKLEKLTQDEIISKTKQVIQGLEALKNEHNSILQSLLETLKCLKKDDESNLVEEKSNMIRKSLEMLELGLSEAQVMMALSNHLNAVESEKQKLRAQVRRLCQENQWLRDELANTQQKLQKSEQSVAQLEEEKKHLEFMNQLKKYDDDISPSEDKDTDSTKEPLDDLFPNDEDDPGQGIQQQHSSAAA
notes: kinesin light chain 1, human, aa 1-200 (N-terminal coiled-coil part); also called N-terminal domain of the KLC; source: pET28a construct (E. coli BL21-CodonPlus (DE3)-RIPL), purified (Streptactin XT, SEC on Superdex 200)
For B1, the binding result in series [1] was “binds”.

B2: full-length human KIF5C-mScarlet-StrepII (natural protein, UniProt O60282 1-957, looked up)
chain: MADPAECSIKVMCRFRPLNEAEILRGDKFIPKFKGDETVVIGQGKPYVFDRVLPPNTTQEQVYNACAKQIVKDVLEGYNGTIFAYGQTSSGKTHTMEGKLHDPQLMGIIPRIAHDIFDHIYSMDENLEFHIKVSYFEIYLDKIRDLLDVSKTNLAVHEDKNRVPYVKGCTERFVSSPEEVMDVIDEGKANRHVAVTNMNEHSSRSHSIFLINIKQENVETEKKLSGKLYLVDLAGSEKVSKTGAEGAVLDEAKNINKSLSALGNVISALAEGTKTHVPYRDSKMTRILQDSLGGNCRTTIVICCSPSVFNEAETKSTLMFGQRAKTIKNTVSVNLELTAEEWKKKYEKEKEKNKTLKNVIQHLEMELNRWRNGEAVPEDEQISAKDQKNLEPCDNTPIIDNIAPVVAGISTEEKEKYDEEISSLYRQLDDKDDEINQQSQLAEKLKQQMLDQDELLASTRRDYEKIQEELTRLQIENEAAKDEVKEVLQALEELAVNYDQKSQEVEDKTRANEQLTDELAQKTTTLTTTQRELSQLQELSNHQKKRATEILNLLLKDLGEIGGIIGTNDVKTLADVNGVIEEEFTMARLYISKMKSEVKSLVNRSKQLESAQMDSNRKMNASERELAACQLLISQHEAKIKSLTDYMQNMEQKRRQLEESQDSLSEELAKLRAQEKMHEVSFQDKEKEHLTRLQDAEEMKKALEQQMESHREAHQKQLSRLRDEIEEKQKIIDEIRDLNQKLQLEQEKLSSDYNKLKIEDQEREMKLEKLLLLNDKREQAREDLKGLEETVSRELQTLHNLRKLFVQDLTTRVKKSVELDNDDGGGSAAQKQKISFLENNLEQLTKVHKQLVRDNADLRCELPKLEKRLRATAERVKALESALKEAKENAMRDRKRYQQEVDRIKEAVRAKNMARRAHSAQIAKPIRPGHYPASSPTAVHAIRGGGGSSSNSTHYQK
notes: kinesin heavy chain KIF5C, human, cDNA BC110287, full length; 2x Prescission protease sites lie between KIF5C and mScarlet; also called KHC; source: Sf9 (baculovirus), purified (Streptactin XT, SEC); also co-expressed with KLC1 and co-purified; not shown: mScarlet, C-terminal, kept
As to B2, the “stoichiometry N” value in series [2] amounted to 2.

Source of the values: article PMC9365671, “Synergistic autoinhibition and activation mechanisms control kinesin-1 motor activity” (Cell reports, 2022).
